Results: article PMC6718625, “CryoEM structures of Arabidopsis DDR complexes involved in RNA-directed DNA methylation” (Nature Communications, 2019)

B2: 6xHis-RDM1 (natural protein, Arabidopsis)
chain: SSMTMELRPSGDSGSSDVDAEISDGFSPLDTSHRDVADEGSLLRRAEMYQDYMKQVPIPTNRGSLIPFTSWVGLSISMKQLYGQPLHYLTNVLLQRWDQSRFGTDSEEQRLDSIIHPTKAEATIWLVEEIHRLTPSHLHMALLWRSDPMYHSFIDPIFPEK
notes: RDM1, Arabidopsis; also called His tag-RDM1; source: E. coli Rosetta2 (DE3), pCDFDuet-1, co-expressed with DMS3; purified within the DR or DDR′ complex, or in lysate (pulldown); not shown: 6xHis, N-terminal, kept

Tests used:
[1] = target: the molecule itself; assay: cryo-EM structure; single-particle cryoEM of the purified DR complex, 3.6 Å
[2] = target: B2; assay: as above; settings: both partners purified
[3] = target: T1, DRD1 peptide 7 with C-terminal Strep II tag (Arabidopsis, UniProt Q9SIW2 45-99); assay: cryo-EM structure; single-particle cryoEM of the purified DDR′ complex (DRD1 peptide 7-DMS3-RDM1), 3.5 Å; settings: both partners purified
T1 construct: DRD1, Arabidopsis, region called peptide 7 in the N-terminal domain; source: E. coli Rosetta2 (DE3), pET21b, co-expressed with RDM1 and DMS3, purified as DDR′ complex (Strep Trap HP, Superdex 200); not shown: Strep II, C-terminal, kept
T1 sequence: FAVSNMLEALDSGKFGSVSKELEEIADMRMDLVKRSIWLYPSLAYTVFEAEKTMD

[4] = target: the molecule itself; assay: SEC; His tag affinity-purified DMS3 WT or G339E on analytical Superdex 200 10/300 GL, 20 mM HEPES-KOH pH 7.5, 150 mM NaCl

B1: DMS3 (recombinant, co-expressed with His-RDM1) (natural protein, Arabidopsis)
chain: YPTGQQISFQTTPLNVQDPTRMMNLDQSSPVARNETQNGGGIAHAEFAMFNSKRLESDLEAMGNKIKQHEDNLKFLKSQKNKMDEAIVDLQVHMSKLNSSPTPRSENSDNSLQGEDINAQILRHENSAAGVLSLVETLHGAQASQLMLTKGVVGVVAKLGKVNDENLSQILSNYLGTRSMLAVVCRNYESVTALEAYDNHGNIDINAGLHCLGSSIGREIGDSFDAICLENLRPYVGQHIADDLQRRLDLLKPKLPNGECPPGFLGFAVNMIQIDPAYLLCVTSYGYGLRETLFYNLFSRLQVYKTRADMISALPCISDGAVSLDGGIIRKTGIFNLGNRDEVNVRFAKPTASRTMDNYSEAEKKMKELKWKKEKTLEDIKREQVLREHAVFNFGKKKEEFVRCLAQSSCTNQPMNTPR
notes: DMS3, Arabidopsis; residues 1-42 and 410-420 are said not to be visible in the maps; DMS3h, DMS3hc1 and DMS3hc2 are conformational states of the same chain in the structures; also called DMS3 WT; DMS3h; source: E. coli Rosetta2 (DE3), pCDFDuet-1, co-expressed with His-RDM1; purified within the DR or DDR′ complex, or in lysate (pulldown)
stoichiometry N [1]: 2 | stoichiometry N [2]: 2 DMS3 per RDM1 (4:2)

B2
stoichiometry N [1]: 2

B3: DR complex (DMS3-RDM1) (complex, Arabidopsis)
chain 1: SSMTMELRPSGDSGSSDVDAEISDGFSPLDTSHRDVADEGSLLRRAEMYQDYMKQVPIPTNRGSLIPFTSWVGLSISMKQLYGQPLHYLTNVLLQRWDQSRFGTDSEEQRLDSIIHPTKAEATIWLVEEIHRLTPSHLHMALLWRSDPMYHSFIDPIFPEK
chain 2: YPTGQQISFQTTPLNVQDPTRMMNLDQSSPVARNETQNGGGIAHAEFAMFNSKRLESDLEAMGNKIKQHEDNLKFLKSQKNKMDEAIVDLQVHMSKLNSSPTPRSENSDNSLQGEDINAQILRHENSAAGVLSLVETLHGAQASQLMLTKGVVGVVAKLGKVNDENLSQILSNYLGTRSMLAVVCRNYESVTALEAYDNHGNIDINAGLHCLGSSIGREIGDSFDAICLENLRPYVGQHIADDLQRRLDLLKPKLPNGECPPGFLGFAVNMIQIDPAYLLCVTSYGYGLRETLFYNLFSRLQVYKTRADMISALPCISDGAVSLDGGIIRKTGIFNLGNRDEVNVRFAKPTASRTMDNYSEAEKKMKELKWKKEKTLEDIKREQVLREHAVFNFGKKKEEFVRCLAQSSCTNQPMNTPR
notes: RDM1, Arabidopsis; DMS3, Arabidopsis; residues 1-42 and 410-420 are said not to be visible in the maps; Stoichiometry 4 DMS3 : 2 RDM1 by cryo-EM; also called DMS3-RDM1 complex; source: E. coli Rosetta2 (DE3), co-expressed from pCDFDuet-1, purified (His Trap HP or, with DRD1 peptide 7, Strep Trap HP; Superdex 200); not shown: 6xHis, N-terminal, kept; copies: 2 + 4
stoichiometry N [3]: 1 peptide per DR complex

B4: His-DMS3 WT (natural protein, Arabidopsis, UniProt Q94A79 1-420, looked up)
chain: MYPTGQQISFQTTPLNVQDPTRMMNLDQSSPVARNETQNGGGIAHAEFAMFNSKRLESDLEAMGNKIKQHEDNLKFLKSQKNKMDEAIVDLQVHMSKLNSSPTPRSENSDNSLQGEDINAQILRHENSAAGVLSLVETLHGAQASQLMLTKGVVGVVAKLGKVNDENLSQILSNYLGTRSMLAVVCRNYESVTALEAYDNHGNIDINAGLHCLGSSIGREIGDSFDAICLENLRPYVGQHIADDLQRRLDLLKPKLPNGECPPGFLGFAVNMIQIDPAYLLCVTSYGYGLRETLFYNLFSRLQVYKTRADMISALPCISDGAVSLDGGIIRKTGIFNLGNRDEVNVRFAKPTASRTMDNYSEAEKKMKELKWKKEKTLEDIKREQVLREHAVFNFGKKKEEFVRCLAQSSCTNQPMNTPR
notes: DMS3, Arabidopsis; also called recombinant DMS3 WT; source: E. coli Rosetta2 (DE3), pCDF-His-DMS3, purified (Ni-NTA agarose)
binding result [4]: binds
